± gives the standard error. This sample holds only a part of the variants without activity.
B1: glmS ribozyme (parent)
chain: AUAAAAGCGCCAGAACUACAGAAAUGUAGUUGACGAGGAGGAGGUUUAUCGAAUUUUCGGCGGAUGCCUCCAAA

Variants of: B1
Test: self-cleavage kobs at 2500 uM GlcN6P; higher = faster cleavage; RNA array
Settings: with glucosamine-6-phosphate
How it was run: (§1)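 A hybridised Cy3 probe tracked barcoded ribozyme variants, transcribed in situ by E. coli RNA polymerase on sequenced MiSeq chips, at 37 °C. The variants received 40 μM to 10 mM glucosamine-6-phosphate in HEPES/KCl/Mg(OAc)2 buffer. kobs came from decay fits and kcat and KM from weighted Michaelis–Menten fits.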

Variant | self-cleavage kobs at 2500 uM GlcN6P [s⁻¹]
A12G U30G U45G U46A C68U | < 1e-05
C11G A15G G59U | 9.06e-05 ± 3.1e-05
C8U A12C A15U U30A U54G U55G C70U | < 1e-05
C10G G32C A53C G63U A64G | < 1e-05
C8U A15U G44C | < 1e-05
A12C G35U A36G U65G | < 1e-05
C11U C16G G43A | < 1e-05
G9U C16A C34A C50G | 7.29e-05 ± 2.6e-05
G7U A36U C68U | < 1e-05
C8G A48U G62A | < 1e-05
C10A C16G U31C G37C C58A G59U | < 1e-05
G7U G35U U45A A53C | < 1e-05
G9C C50G U55A U57G C70U | 0.000283 ± 0.0001
G9U G29U G35U G38C U45G U49A | < 1e-05
G7A U46C A52U C58A | < 1e-05
G7U U57G G60U | < 1e-05
C8U A15C G63C | < 1e-05
C8U C11G C58A | < 1e-05
C11A A12U G35U C50G | 0.000171 ± 4.2e-05
A12G G29C G37A U46A | < 1e-05
A12G A39U U47G | 8.38e-05 ± 1.6e-05

Variant | self-cleavage kobs at 2500 uM GlcN6P [s⁻¹]
C11U A42G U54G G66A | 0.000265 ± 7.1e-05
G7U A39G U56G C70A | < 1e-05
C11U G63A U65C | < 1e-05
C10A C11A G38C G41A | < 1e-05
C8G A14U A42U | < 1e-05
C11U A12G U31G | 0.000738 ± 0.00012
C10U G60C G62U | < 1e-05
G7A G29U G59A G62U | < 1e-05
C8A A42C A64G | < 1e-05
G9U G32C G41U U47G A52G U65G U69A | < 1e-05
G7U C8U G35C G62A | < 1e-05
G7A G40A A53U | < 1e-05
C8G C11A A33C | < 1e-05
G7U C10U A36U G44U U54A | < 1e-05
C11U U31G A53C | 0.000433 ± 0.0001
C10G G44U C50G | < 1e-05
C10A A12U G37U U45A | < 1e-05
C8A C16U U56A | < 1e-05
C8U G37U | < 1e-05
A12C G40U U54A | 0.000324 ± 6.9e-05
A12C C50U G60U C67U | < 1e-05

Variant | self-cleavage kobs at 2500 uM GlcN6P [s⁻¹]
C11U G40C G44A G51A C61G C71A | < 1e-05
C10A G44C A48C | < 1e-05
A12C U55A U69C | 0.000484 ± 0.00011
G7A G43A C70A | < 1e-05
C8A G29C G37C A39U G43A U45G G51A | < 1e-05
G7U A12C A36C A39U U47C | < 1e-05
A12C C58U G60U | < 1e-05
C10U A14C G66C | < 1e-05
G7U C16A U30C A52U G60U C71G | < 1e-05
C10G G43U A64G | < 1e-05
G9U U31G G66U C71U | < 1e-05
G7C G9U G60A | < 1e-05
C8U A15U G32U U46C | < 1e-05
C8U C11A G32A U56G | < 1e-05
G7C A12G A39U A42C U65C C71A | < 1e-05
C11A G40C G62A C68U | < 1e-05
G9C C11A G35A G37U A39C G59U | < 1e-05
G7C C10G A48C | < 1e-05
G7C G38C G51U | < 1e-05
C10U G29U A33G A39C U55G C70G | < 1e-05
C11G G41U U57A | < 1e-05

Variant | self-cleavage kobs at 2500 uM GlcN6P [s⁻¹]
C8A C11U A48U U56A | < 1e-05
C10A G41A G43C | < 1e-05
G7C G40U C50G G66C | < 1e-05
A12C G38A U49C A53C | < 1e-05
C8G C10G A39C | < 1e-05
A12G C16G C68G | 0.00102 ± 0.0005
G9U A36U C50G U54G U57A C67U | 0.000182 ± 3.6e-05
A12C G66U C70A | 0.000107 ± 2.6e-05
C8U G37A C50G A64G C71A | 0.000244 ± 6.7e-05
C11G G37A U49G G60U | < 1e-05
G7C G38A U49C A53C C61A | < 1e-05
C8G A15C A36G | < 1e-05
C8G G51C U54G | < 1e-05
G9U U55C U56G C67U | < 1e-05
G9U G41U G60U C70U | < 1e-05
G9U U47G C68U | < 1e-05
C8G G63U U65C | < 1e-05
C10A C50A C67U | 0.000776 ± 0.00021

Variants of: B1
Test: self-cleavage kobs at 10000 uM GlcN6P; higher = faster cleavage; RNA array
Settings: with glucosamine-6-phosphate
How it was run: as §1

Variant | self-cleavage kobs at 10000 uM GlcN6P [s⁻¹]
G9C C50G U55A U57G C70U | 0.000426 ± 0.00018
C11U A12G U31G | 0.00126 ± 0.0003
C8G C11A A33C | < 1e-05
G9U U55C U56G C67U | < 1e-05
C8G G63U U65C | < 1e-05
C10A C50A C67U | 4.36e-05 ± 1.7e-05
